Literature values as cited in paper PMC7522120.

Target: Folate receptor alpha (Homo sapiens) (UniProt P15328)
Sequence (P15328 25-234): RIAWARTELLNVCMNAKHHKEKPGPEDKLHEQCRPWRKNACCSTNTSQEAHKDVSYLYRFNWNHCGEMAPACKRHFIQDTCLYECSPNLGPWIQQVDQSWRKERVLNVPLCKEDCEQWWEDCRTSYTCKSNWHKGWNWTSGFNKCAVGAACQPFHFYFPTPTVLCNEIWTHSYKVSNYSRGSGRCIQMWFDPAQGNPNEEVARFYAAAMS

For farletuzumab, the Kd is listed as 2 nM.
